Assay: soluble on expression in E. coli; label from the status in PepcDB or PDB records

Sequence | soluble on expression in E. coli
MRTNVRLLAYRLLRKYEKEKFISREDVDSVLSFLDDRDRRFFKELVWGVVRKEELLDWYINQLLKKKDIPPAVRVALRMGAYQLLFMNSVPDYAAVSETVKLVKNENFKKLVNAVLRRLRTVPEPKELHLVYSHPEWIVNYWRSFLPEEAVLRIMKWNQEPLPVMLRVNSLAATKEEVIKILAEEGTEAVPGKHAPFSLIVRKLGVPMNDSRVINDGLASVQGESSQLVPFFMELRPGLRVLDTCAAPGGKTTAIAELMKDQGKILAVDISREKIQLVEKHAKRLKLSSIETKIADAERLTEYVQDTFDRVLVDAPCTSLGTARNHPEVLRRVNKEDFEKFSEIQLRMVQQAWQLLEKGGILLYSTCTVTKEENTEVVKRFVYEQKDVEVIDIRDKMKEFEVEGIWDGYGFLMLPDETITPFYISVLRKMG | soluble
SKKVIVIAGTTGVGKSQLSIQLAQKFNGEVINSDSMQVYKDIPIITNKHPLQEREGIPHHVMNHVDWSEEYYSHRFETECMNAIEDIHRRGKIPIVVGGTHYYLQTLFNKRVDTKSSERKLTRKQLDILESTDPDVIYNTLVKCDPDIATKYHPNDYRRVQRMLEIYYKTGKKPSETFNEQKITLKFDTLFLWLYSKPEPLFQRLDDRVDDMLERGALQEIKQLYEYYSQNKFTPEQCENGVWQVIGFKEFLPWLTGKTDDNTVKLEDCIERMKTRTRQYAKRQVKWIKKMLIPDIKGDIYLLDATDLSQWDTNASQRAIAISNDFISNRPIKQERAPKALEELLSKGETTMKKLDDWTHYTCNVCRNADGKNVVAIGEKYWKIHLGSRRHKSNLKRNTRQADFEKWKI | soluble
METFRTLLAKAALGNGISSTAYDTAWVAKLGQLDDELSDLALNWLCERQLPDGSWGAEFPFCYEDRLLSTLAAMISLTSNKHRRRRAAQVEKGLLALKNLTSGAFEGPQLDIKDATVGFELIAPTLMAEAARLGLAICHEESILGELVGVREQKLRKLGGSKINKHITAAFSVELAGQDGVGMLDVDNLQETNGSVKYSPSASAYFALHVKPGDKRALAYISSIIQAGDGGAPAFYQAEIFEIVWSLWNLSRTDIDLSDPEIVRTYLPYLDHVEQHWVRGRGVGWTGNSTLEDCDTTSVAYDVLSKFGRSPDIGAVLQFEDADWFRTYFHEVGPSISTNVHVLGALKQAGYDKCHPRVRKVLEFIRSSKEPGRFCWRDKWHRSAYYTTAHLICAASNYDDALCSDAIGWILNTQRPDGSWGFFDGQATAEETAYCIQALAHWQRHSGTSLSAQISRAGGWLSQHCEPPYAPLWIAKTLYCSATVVKAAILSALRLVDESNQ | not soluble
MGSSHHHHHHSSGLVPRGSHMASMKQIKKLLVANRGEIAIRIFRAAAELDISTVAIYSNEDKSSLHRYKADESYLVGSDLGPAESYLNIERIIDVAKQANVDAIHPGYGFLSENEQFARRCAEEGIKFIGPHLEHLDMFGDKVKARTTAIKADLPVIPGTDGPIKSYELAKEFAEEAGFPLMIKATSGGGGKGMRIVREESELEDAFHRAKSEAEKSFGNSEVYIERYIDNPKHIEVQVIGDEHGNIVHLFERDCSVQRRHQKVVEVAPSVGLSPTLRQRICDAAIQLMENIKYVNAGTVEFLVSGDEFFFIEVNPRVQVEHTITEMVTGIDIVKTQILVAAGADLFGEEINMPQQKDITTLGYAIQCRITTEDPLNDFMPDTGTIIAYRSSGGFGVRLDAGDGFQGAEISPYYDSLLVKLSTHAISFKQAEEKMVRSLREMRIRGVKTNIPFLINVMKNKKFTSGDYTTKFIEETPELFDIQPSLDRGTKTLEYIGNVTINGFPNVEKRPKPDYELASIPTVSSSKIASFSGTKQLLDEVGPKGVAEWVKKQDDVLLTDTTFRDAHQSLLATRVRTKDMINIASKTADVFKDGFSLEMWGGATFDVAYNFLKENPWERLERLRKAIPNVLFQMLLRASNAVGYKNYPDNVIHKFVQESAKAGIDVFRIFDSLNWVDQMKVANEAVQEAGKISEGTICYTGDILNPERSNIYTLEYYVKLAKELEREGFHILAIKDMAGLLKPKAAYELIGELKSAVDLPIHLHTHDTSGNGLLTYKQAIDAGVDIIDTAVASMSGLTSQPSANSLYYALNGFPRHLRTDIEGMESLSHYWSTVRTYYSDFESDIKSPNTEIYQHEMPGGQYSNLSQQAKSLGLGERFDEVKDMYRRVNFLFGDIVKVTPSSKVVGDMALYMVQNDLDEQSVITDGYKLDFPESVVSFFKGEIGQPVNGFNKDLQAVILKGQEALTARPGEYLEPVDFEKVRELLEEEQQGPVTEQDIISYVLYPKVYEQYIQTRNQYGNLSLLDTPTFFFGMRNGETVEIEIDKGKRLIIKLETISEPDENGNRTIYYAMNGQARRIYIKDENVHTNANVKPKADKSNPSHIGAQMPGSVTEVKVSVGETVKANQPLLITEAMKMETTIQAPFDGVIKQVTVNNGDTIATGDLLIEIEKATD | soluble
GNPLRKFKLVFLGEQSVGKTSLITRFMYDSFDNTYQATIGIDFLSKTMYLEDRTVRLQLWDTAGLERFRSLIPSYIRDSTVAVVVYDITNVNSFQQTTKWIDDVRTERGSDVIIMLVGNKTDLADKRQVSIEEGERKAKELNVMFIETSAKAGYNVKQLFRRVAAALPGMESTQDRSREDMIDIKLEK | soluble
VFGYVTEDGDTALHLAVIHQHEPFLDFLLGFSAGHEYLDLQNDLGQTALHLAAILGEASTVEKLYAAGAGVLVAERGGHTALHLACRVRAHTCACVLLQPRPSHPRDASDTYLTQSQDCTPDTSHAPAAVDSQPNPENEEEPRDEDWRLQLEAENYDGHTPLHVAVIHKDAEMVRLLRDAGADLNKPEPTCGRTPLHLAVEAQAASVLELLLKAGADPTARMYGGRTPLGSALLRPNPILARLLRAHGAPEPEDGGDKLSPCEEEGEDEDSDNRDEGDEYDD | soluble
MQDSKIPPFSEAKRMKIPTPKQPLTQLPPRIGKKVSNRSKSNQVHAISHQLEMSPNSDSSPGNEYRALRRKYLLLEEDSFALERELKEAEDEVKALEDEKLELLDKLVVMEGLVDP | soluble
MSFILPSESIDGTHPCNGLHMNGQDSLVQPLLTDFYQITMCYAYWKTGTHNEPAVFDVFFRKNPFQGEFTVFAGLEDCLRFVENFKFSQSDIDYVKKILPENAEPEFYEYLETLNGSHLTIEAVAEGSVVFPKVPLLTINGPLAMCQLIETSILNLVNYASLVATNAARFRQASGWKIQLLEFGLRRAQGPNGGLTASKYCYIGGFDATSNVLAGKLYGIPVKGTQAHSFICSFSSPAELKVRLLNHKITNEKADLFQISMEKRAWLLDQFSWKAALSEVSDGELSAFVAYAIAFPDTFLALIDTYDVIRSGVVNFVAVSLALHDLGYRSMGCRIDSGDLSYLSKELRECFVKVSTLKGEYKFFEKMSIVASNDINEETIMSLNDQQHEINAFGVGTHLVTCQKQPALGCVYKLVAQSAQPKIKLSQDVTKITIPGKKKCYRIFGKNGYAILDLMMLEDEPEPQPNQQILCRHPFEVESKRALVNANKIIKLHNVYWKDGEMITPLPTLNEIKEHVNESIRSTLRQDHRRYLNPTPYKVSVSERLYQFLHTLWLQNAPIGQLE | soluble
MSLSLREEALHLHKVNQGKLESKSKVEVRNAKDLSLAYSPGVAEPCKDIHEDINKVYDYTMKGNMVAVVTDGTAVLGLGNIGPEAALPVMEGKAVLFKSFAGVDAFPIALNTNDVDKIVETVKLLEPTFGGVNLEDIAAPNCFIIEERLKKETNIPVFHDDQHGTAIVTVAGLVNALKLSGKSMSSIKVVANGAGAAGIAIIKLLHHYGVRDIVMCDSKGAIYEGRPNGMNDVKNEVAKFTNQDRKDGSLKDVIVDADVFIGVSVAGALTKEMVQSMAKDPIIFAMANPNPEIMPEDAREAGASVVGTGRSDFPNQVNNVLAFPGIFRGALDVRATHINEEMKIAAVEAIASLVSEDELSADYVIPAPFDKRVAPAVAKAVAKAAMETGVARITVDPEEVAEKTRKLTIIGEEGHHHHHH | soluble
MSEEVIKFTSPRKQVKEEFKLIDTQKIADVRIQWFGKFTKNREKIMFCWKFFPGDKLQNEGIDFLVGHIKAYPHPTYNDFEPFEFDFNVNGAEHKETREYEYLTKNDWCCATYECELTPFRLYGNMFGASTKHDGVLVVEKKKLNVSKAFLSYHSDFFSDLFSREAHSKDIPIEGVTYFEFGLLISCIHPDHTVFPNDETVSKLLSLADRFSMRAVYRMVEHHLLHSSSNMGIREVIKTADQYGMKELMEKSISRITSTEKVMDLIQSAEFPELSAETKAKLMDCMAKMMR | not soluble
MGSDKIHHHHHHMNGKAVQLKEEADEPGWEVDPDDEWGVAVVETVGRQLKLRREALGMRAADFGTAVGYGEDMVYKIESGKRIPRPEFLDRADELLGAGGLLSAMKEDVKKVRYPKNVREIAKLEAQAVELGVYVGLSLHGLLQTPEHARALFEVWQPAYSPEEAERRMAARMARKAIFERSPAPALSFVQEEATLRRPVGGTMVWRQQLEHLLEVGQLRNVTLQVMPTNSEAHPGLSGRIEVLKFSDGTAVGRSDGAYNGRPISDPKQLRILELRYGTIRAQALPPRESLAFIEQLLGET | not soluble
MGSDKIHHHHHHMKEKERLIIEMAMKLFATKGVNATSVQEIVTACGISKGAFYLYFKSKEELLLATLRYYYDKIQNKMMDIEKESLLPREKFAKQLHCQFNDIQKHKEFIIMHARENAIPFNKEVEEFMMRMKLESHAFYRNSLLSIYGDKVMPYLLDLVIMVEGICRGYLELIILQAPEIDLSYVSAFILKRVDHLVDGLVKSSEEPVLHEERLGEFLCKSELIKEQVKEHFLKEIIVFKRTLADQLEDEELLVTLDVLEAEMRMQNPRIPVIQGMLFNLEAYPTLKEFRLRLMGYYNIKR | not soluble
MGSDKIHHHHHHMAQQPLAYRMRPQRLEDIVGQQDLVAPGKIIARMVAAKLLSSMILYGPPGTGKTSIASAIAGSTQYAFRKLNAATDSKKDLQIVAEEAKMSGTVILLLDEIHRLDKTKQDFLLPHLESGRIVLIGATTENPYININPAIRSRTQIFEVHPLTPDDIKIALHRALTDTENGLGKLPIDLNTEALNFIAGATNGDLRSALNGLELAAQSTPAANDDRIHITLAVAEACFQRKALMGDKDGDAHYDVISAFQKSIRGSDTDAALHYLAQLVAAGDLPAICRRLMVIAYEDIGMANLPAAARTVQAVQAAQQLGLPEGRIPLADAVIELCLSPKSDSGISAIDAALADVLNGHNGAVPDHLKDAHYAGAKKLGHGTDYKYPHNFPNDWVKQQYLPDTLKNAEYYHPKTNGRFETQLAQQYRRLLTANRH | not soluble
MSLMYSRKFQILKENIGLYHGDFMDFEVYDTEYMSIIFVKDRLDYTGKEIEPLWAFKTFDIQKDSIVVFRGRMEVTTENMKDLKDIKREKDIKTPIKSEDAINFVVEHFDVIDLKTIYLRQRLLVFIAKEVIESYNIKLKRDGDDLYFEDKKLSVCIACKGTVSAKIHLGINVKSKGAEHVKIIGLEDLGIKDIDKVMREIAINYAKEIDKIERDLRKTLPLIEGHHHHHH | soluble
MSLASEILPDEFLELFKDLKKPPKKLHYKGNLSLLKQDKIAIIGSRRMSVYTKNCVFSLASMLKNAHLCVVSGGALGVDITASMAAMPNTIGIFANGLDQIYPRTNEKIIKQIYENALALSEYEDDYLPKNYDFLLRNRLVIALSKAVVVAQADIKSGSMQSAKLALELNKPLYVLPQRLGESTATNLLLKENKAKLICDFKEFVSEFASIDMNQDEFLEFCKKGVSVDEALKIYGQKVYEYELEGKISIEGLFIRVLAEGHHHHHH | soluble
MGHHHHHHSHYHVYWLEMVLFYRAHFGTDETILDGKEYDIYVSYARNAEEEEFVLLTLRGVLENEFGYKLCIFDRDSLPGGIVTDETLSFIQKSRRLLVVLSPNYVLQGTQALLELKAGLENMASRGNINVILVQYKAVKETKVKELKRAKTVLTVIKWKGEKSKYPQGRFWKQLQVAMPVKKSPRRSSS | soluble

— the DeepSol protein solubility set
